The results in this text go back to US8217161B2, “Methods of inhibiting multiple cytochrome P450 genes with siRNA” (Clemson University Research Foundation, priority 2008, dated 2012).

Read-outs that look alike come from different tables or passages of the source.

The subject of series [1] is Cyp2b-knockdown mice. Conditions: 75 mg/kg ip, observed 30 minutes. As to the method: Strychnine: Strychnine is a Cyp2b-inducer (Oguri et al., Arch. Biochem. Biophys. 287:105 (1991); Yamada et al., Arch. Biochem. Biophys. 299:248 (1992)) and therefore a potential CAR agonist. Strychnine is administered ip (75 mg/kg in saline) and observed for 30 minutes. Latency time to the first convulsions and number of animals showing convulsion is noted. […] Statistical analysis is performed using Fisher's 2×2 tests.

Series [2] relates to Cyp2b-knockdown mice. The series can be described thus: Chlorpyrifos toxicity in Cyp2b-knockdown mice. The note with it: 10 mg/kg ip. It counts as in vivo, mouse. As to the method:
Chlorpyrifos: Similar to parathion, chlorpyrifos is an organophosphate insecticide that activates CAR, but chlorpyrifos is more toxic to wild-type mice. Initial toxicity is outwardly shown by mucous discharge from the eyes and later by reduced activity or complete lethargy, similar to other acetylcholinesterase inhibitors. Mice are injected ip with 10 mg/kg of chlorpyrifos and watched for behavioral changes. Mice showing toxicity are immediately euthanized to avoid unnecessary distress or pain. Statistical differences are determined using a Fisher's 2×2 test (StatView®, SAS Institute, Cary, N.C.).

In series [3] the test system is Cyp2b-knockdown mice. The note with it: mouse, in vivo.
For another series, the system named is Cyp2b9 mRNA. The series is described as follows: Q-PCR of Cyp2b9 mRNA in TCPOBOP-induced primary mouse hepatocytes transduced with lentiviral shRNA constructs. Type of series: cell-based. As to the method:
(§1) Q-PCR is performed to determine the efficacy of shRNA knockdown of the Cyp2b gene subfamily. Total RNA is isolated using a modified guanidinium thiocyanate-phenol-chloroform extraction protocol with TRI-reagent (Sigma, St. Louis, Mo.) according to the manufacturer's specifications followed by DNAse (Promega Corporation, Madison Wis.) treatment to remove residual genomic DNA. RNA is quantified spectrophotometrically and stored at −80° C. Reverse transcription is performed to create cDNA using MMLV-RT, a dNTP mixture, and random decamers. cDNA is stored at −20° C. Q-PCR is performed as described previously (Roling et al., Mar. Environ. Res. 57:377 (2004)). Briefly, to generate a standard curve and determine PCR efficiency, cDNA is combined and a 2×, 1:1, 1:10, 1:100, and 1:1000 dilution made. […] Amplifications are performed in triplicate using a 96-well MyiQ™ Real-Time PCR Detection System (Bio-Rad) with 0.25× SybrGreen as the fluorescent double strand-intercalating agent to quantify gene expression. The advantage of Q-PCR is having enough material to investigate a decrease of several Cyp2b isoforms as well as confirm that other P450 subfamilies are unaffected (Cyp3a, 2c).
(§2) Q-PCR results are normalized to the expression of the two housekeeping genes, β-Actin and 18S rRNA. A minimum of forty cycles is run on all real time samples to ensure a log based growth curve. Quantification is done by taking the efficiency curve of the Q-PCR reaction to the power of the threshold cycle (Ct). Samples are normalized to reference genes (β-actin and 18S rRNA) quantified for each sample. The formula for calculating normalized gene expression is NE={Eref}^Ct-ref/{Etarget}^Ct-target where NE is normalized gene expression, E is the efficiency of amplification for a particular gene, Ct is the threshold cycle, ref is the housekeeping gene (β-actin and 18S rRNA), and target is the gene of interest (Muller et al., Biotechniques 32:1372 (2002)).
(§3) The efficacy of the Cyp2b-KD2 and Cyp2b-KD3 lentiviral constructs to repress the expression of the Cyp2b subfamily members, Cyp2b9 and Cyp2b10 was tested using primary mouse hepatocytes. Primary mouse hepatocytes were plated in 6-well plates, treated with the CAR activator TCPOBOP to induce Cyp2b subfamily members (especially Cyp2b10) and then infected with either scrambled, Cyp2b-KD2 or Cyp2b-KD3 at a multiplicity of infection (MOI) of 20 and/or 5. The percentage of cells infected based on the presence of green fluorescence using fluorescent microscopy was approximately 65-80+% in KD2 transduced cells at a MOI of 5 and a about 55-70% in KD3 transduced cells at a MOI of 5.

Another series deals with Cyp2b10 mRNA. The series can be described thus: Q-PCR of Cyp2b10 mRNA in TCPOBOP-induced primary mouse hepatocytes transduced with lentiviral shRNA constructs. Type of series: cell-based. Conditions: for reduction of Cyp2b10 expression: MOI 20 and/or 5, vs scrambled lentivirus. As to the method: as §1, §2, §3
The subject of series [4] is primary mouse hepatocytes. The series can be described thus: Percentage of cells infected, by green fluorescence microscopy. Type of series: cell-based. Conditions: MOI of 5. As to the method: as §3
[5] abbreviates: TCPOBOP-treated primary mouse hepatocytes.

Regarding `O=C1C[C@@H]2OCC=C3CN4CC[C@]56c7ccccc7N1[C@H]5[C@H]2[C@H]3C[C@H]46` [strychnine], the protection from convulsions result in the series with Cyp2b-knockdown mice [1] is reported as “protection”.

As to `CCOP(=S)(OCC)Oc1nc(Cl)c(Cl)cc1Cl` [chlorpyrifos], the “sensitivity as compared to wild-type mice” value with Cyp2b-knockdown mice [2] was “decreased sensitivity”.

In the case of `CC(=O)Nc1ccc(O)cc1` [acetaminophen], the “toxicity in TCPOBOP-treated mice” value in the series with Cyp2b-knockdown mice [3] is reported as “greatest amount of toxicity”.

B1: Cyp2b-KD3: lentiviral shRNA construct targeting mouse Cyp2b subfamily; siRNA sequence CAGGAAAGCGCATTTGTCTTG (nucleic acid)
DNA: GGATCCCGCAAGACAAATGCGCTTTCCTGTTGATATCCGCAGGAAAGCGCATTTGTCTTGTTTTTTCCAACTCGAG
Take B1: the “Cyp2b9 expression relative to cells treated with the scrambled shRNA (in words)” value in the series with Cyp2b9 mRNA is “not reduced”; in the series on Cyp2b9 mRNA (listed as KD3) it was “reduced”. For the same molecule, the “Cyp2b10 expression relative to cells treated with the scrambled shRNA (in words)” value in the series on Cyp2b10 mRNA is “only KD2 reduced”. Moreover, the “reduction of Cyp2b10 expression” value with Cyp2b10 mRNA (setting [5]) is given as 50%. Moreover, the “percentage of cells infected based on green fluorescence” value in series [4] is given as 55-70%.

B2: Cyp2b-KD2: lentiviral shRNA construct targeting mouse Cyp2b subfamily; siRNA sequence AAGAACACTGAGGTGTACCCC (nucleic acid)
DNA: GGATCCCAAGAACACTGAGGTGTACCCCTTGATATCCGGGGGTACACCTCAGTGTTCTTTTTTTTCCAACTCGAG
Turning to B2, in the series with Cyp2b9 mRNA, the “Cyp2b9 expression relative to cells treated with the scrambled shRNA (in words)” value is on record as “reduced”. For the same molecule, the “reduction of Cyp2b9 expression” value in the series with Cyp2b9 mRNA (TCPOBOP-treated primary mouse hepatocytes, MOI 20 and/or 5, vs scrambled lentivirus) is given as 75-98%. In addition, the “Cyp2b10 expression relative to cells treated with the scrambled shRNA (in words)” value with Cyp2b10 mRNA is listed as “reduced”. In the series with Cyp2b10 mRNA (setting [5]), the “reduction of Cyp2b10 expression” value is recorded as 75-98%. Also, the “percentage of cells infected based on green fluorescence” value in series [4] was 65-80%.

B3: scrambled-shRNA: control shRNA construct with scrambled sequence that does not recognize any murine mRNAs (nucleic acid)
chain: GGATCCCGACGATTCGAGGCGCAGTGATTTGATATCCGATCACTGCTCCTCGAATCGTCTTTTTTCCAACTCGAG
B3: in the series with Cyp2b9 mRNA (setting [5]), the “Cyp2b9 expression relative to uninfected cells (in words)” value is “did not reduce”. In addition, the “Cyp2b10 expression relative to uninfected cells (in words)” value with Cyp2b10 mRNA (setting [5]) is given as “did not reduce”.
